From patent US20220226473A1, “Nucleic acid nanocarrier drug and preparation method thereof, pharmaceutical composition and application thereof” (BAI YAO ZHI DA (BEIJING) NANOBIO TECHNOLOGY CO., LTD., priority 2018, published 2022)
Substitutions are numbered along the chain they refer to. Like-named read-outs stand apart in the source and are kept apart here. {Biotin} = biotin (Bio) of the a-strand; {Bio} = biotin of the strand

B1: D-12: extension fragment deformation+core short-sequence DNA nanoparticle, SEQ ID NO: 153-155, 3′ biotin (nucleic acid)
chain 1: GCGGCGAGCGGCGAGCAGCGTTCGGGCCGGAGGCCGG
chain 2: CCGGCCTCCGGCCCGTTCGGCCCCAGCCGCC
chain 3: GGCGGCAGGGGCCCATAGCGCTCGCCGCTCGCCGC
modifications: chain 1: DNA, 3' {Biotin}, backbone not given here; chain 2: DNA, backbone not given here; chain 3: DNA, backbone not given here; three-strand DNA nanoparticle carrier
B2: D-14: extension fragment deformation+core short-sequence DNA nanoparticle, SEQ ID NO: 159-161, 3′ biotin (nucleic acid)
chain 1: B1 chain 1 with G15C, C16G, C23G, G24C
chain 2: B1 chain 2 with C14G, G15C, C22G
chain 3: B1 chain 3 with G10C, G20C, C21G
modifications: chain 1: DNA, 3' {Biotin}, backbone not given here; chain 2: DNA, backbone not given here; chain 3: DNA, backbone not given here; three-strand DNA nanoparticle carrier
B3: D-13: extension fragment deformation+core short-sequence DNA nanoparticle, SEQ ID NO: 156-158, 3′ biotin (nucleic acid)
chain 1: B1 chain 1 with G15C, C16G, C23G, G24C
chain 2: CCGGCCTCCGGCCGCTTCGCCGCCAGCCGCC
chain 3: B1 chain 3 with G10C, C12G, G20C, C21G
modifications: chain 1: DNA, 3' {Bio}, backbone not given here; chain 2: DNA, backbone not given here; chain 3: DNA, backbone not given here; three-strand DNA nanoparticle carrier

How the values were obtained:
HL60 cells = experiment: Cytotoxicity of RNAh-Bio-670-EPB nanoparticles, CellTiter-Glo; type: cell-based; details: HL60, treatment time 72 h, CellTiter-Glo; read-out: IC50
Method: Preparing a freshly prepared reagent into a corresponding volume container, and adding PBS to be quantified to 10 μM.
Cells are cultured at 37 DEG C. and 5% CO2 in a corresponding basal medium in which 10% FBS and 1% PS are respectively added. The cell density used in the experiment is above 80%. The cells are collected, and centrifuged at 1000 rpm for 4 minutes, the medium is resuspended, the cell concentration is adjusted, and it is added to the 96-well plate in a volume of 3000 cells per 50 μL, and each group has 3 replicate wells.
After 24 hours, the compound solution is transferred to each well by 50 μL/well.
The above cells after administration are cultured for 72 hours under a condition of 37 DEG C and 5% CO2.
The well plate is brought to a room temperature in advance and stands for 30 minutes, 100 μL of a CellTiter-Glo® reagent is added to each well of the well plate and mixed for 2 minutes on a shaker to promote cell lysis. The Perkin Elmer Envision 2104 Multilabel Reader is used to read values and the values are recorded.
The acquired experiment data is analyzed and processed by using excel software, and GraphPad Prism 5 software is used for curve fitting analysis.

MOLT4 cells = experiment: Cytotoxicity of RNAh-Bio-670-MTX nanoparticles, CTG; type: cell-based, human; details: 200 nM
Method: 1) Using the RPMI1640+10% FBS+1% PS medium to culture the MOLT4 cells at 37 DEG C. and 5% CO2.
2) Collecting the cells, centrifuging at 800 rpm for 5 minutes, resuspending the medium, adjusting the cell concentration, and adding to the 96-we plate in a volume of 5000 cells per 90 μL. […]
4) After being cultured for 72 hours, adding 100 μL of the CTG reagent to each well, shaking for 2 minutes, and standing at the room temperature for 10 minutes, herein a whole process is protected from light.
5) Finally using Soft Max Pro5 software to read.

SH-SY5Y cells = experiment: Cytotoxicity of RNAh-Biotin-quasar670-aspirin nanoparticles, CTG kit; type: cell-based; details: Homo sapiens, SH-SY5Y
Method: Experiment purpose: an effect of a compound on proliferation of a target tumor cell line is researched.
Experiment design: the compound is diluted in 8 concentration gradients and sequentially added to the target tumor cell line and incubated for 72 hours, the CTG kit is used to detect the effect of the compound on the cell proliferation.

BXPC3 cells = experiment: Cytotoxicity of RNAh-Bio-670-gemcitabine nanoparticles; type: cell-based; details: Homo sapiens, BXPC-3
Text: I. Samples to be tested: small molecular drug gemcitabine and […] nanoparticles

[1] = Electric potential (zeta potential) measurement of self-assembly products; type: physicochemical; details: result over 3 detections, at 25 DEG C.
Method in brief: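 Self-assembled RNA or DNA nanoparticles dissolved in ultrapure water; zeta potential measured manually at 25 °C.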

[2] = TM value detection by solubility curve method (SYBR Green I); type: physicochemical; details: DNA nanoparticles
Method: A solubility curve method is used to detect TM values of the 7 groups of the extension fragment deformation+core short-sequence RNA nanoparticles, and the samples are consistent with the potential samples.
(1) After the sample is diluted with ultrapure water, 5 μg of the diluted sample is mixed with 2 μL of SYBR Green I dye (diluted by 1:200), a final volume is 20 μL, and the dilution concentration is as follows:
(2) It is incubated for 30 min in the dark at a room temperature; and
(3) On-machine detection is performed, a program is set to start at 20 DEG C., the temperature rises per second from 0.1 DEG C. to 95 DEG C., and reading is performed every 5 s.
Due to the particularity of the RNA samples, a temperature corresponding to ½ RFUmax in a range of 20 to 90 DEG C. is used as a sample Tm value in this test.
A solubility curve method is used to detect TM values of the 7 groups of the extension fragment deformation+core short-sequence DNA nanoparticles, and the samples are consistent with the potential samples.
(1) After the sample is diluted with ultrapure water, 5 μg of the diluted sample is mixed with 2 μL of SYBR Green I dye (diluted by 1:200). a final volume is 20 μL, and the dilution concentration is as follows: […]

[3] = Drug loading rate of nucleic acid nanoparticles (chemical loading, absorbance standard curve); type: physicochemical; design: unit not given here; details: for doxorubicin loading rate: chemical loading method of Embodiment 5
Text: According to the chemical loading method (unless otherwise specified, the method is the same as that of Embodiment 5) of Embodiment 5, the RNA nanoparticles formed by the self-assembly of the previous R-15, R-16, R-17, R-18, R-19, R-20 and R-21 in Embodiment 9, and the DNA nanoparticles formed by the self-assembly of the D-8, D-9, D-10, D-11, D-12, D-13 and D-14 in Embodiment 10 are respectively used as doxorubicin loading carriers, doxorubicin loading rates measured are respectively as follows:
According to the chemical loading method (unless otherwise specified, the method is the same as that of Embodiment 5) of Embodiment 5, the DNA nanoparticles formed by the self-assembly of the previous D-10 and D-14 in Embodiment 10 are used as a daunorubicin loading carrier.
According to a chemical loading method of Embodiment 5 (unless otherwise specified, the method is the same as that of Embodiment 5, the same molar number of the epirubicin is used as a loading amount), nucleic acid nanoparticles (a molecular weight is 29550, it is similar to the RNA nanoparticles in Embodiment 1, and a difference is that a fluorescent label on a c-strand is Cy5) are used as a carrier, and respectively loaded with: epirubicin, methotrexate, pirarubicin, daunorubicin, […], 10-hydroxycamptothecin, aspirin and gemcitabine.
Herein, when a standard curve is drawn, the absorbance of the above drugs on the microplate reader is measured respectively. The absorbance of the epirubicin, methotrexate, pirarubicin, daunorubicin, […], 10-hydroxycamptothecin, aspirin and gemcitabine is respectively detected at the following wavelengths: 492 nm, 303 nm, 492 nm, 492 nm, 265 nm, 384 nm, 225 nm and 268 nm. The standard curves obtained correspondingly are respectively shown in FIG. 48a, FIG. 49, FIG. 50sa, FIG. 51, FIG. 52, FIG. 53, FIG. 54a and FIG. 55. […]

HepG2 cells [4] = experiment: Cell binding of DNA nanoparticles and carrier drugs by FACS; type: cell-based; details: incubated at 37 DEG C. for 2 h, flow cytometry
Method: 1. A cell state is adjusted to a logarithmic growth phase, the medium is changed into a medium without biotin and folic acid, and it is incubated overnight in an incubator at 37 DEG C.
2. After incubation, cell suspension is trypsinized and collected, and centrifuged at 1000 rpm for 5 min, after the concentration is adjusted, a 2×10^6-5×10^6 cell/EP tube is taken and washed twice with 1 mL/tube of 1% BSA-PBS, and cells at the bottom of the tube is observed to prevent them from being absorbed.
3. A substance to be tested is dissolved, and the substance to be tested is diluted to a use concentration.
4. Cell supernatant is absorbed, 100 μL of a corresponding sample is added to each tube in order, light is avoided, and it is incubated at 37 DEG C. for 2 h.
5. It is washed twice with 1% BSA-PBS; and centrifuged at 1000 rpm for 5 min.
6. Finally, it is precipitated with 300 μL of PBS cell resuspension, and flow Cytometric on-machine detection (the blank carrier used in the present embodiment is labeled by Quasar670, and the doxorubicin in the carrier drug has its own fluorescence, so the detection may be performed through FL4-APC and FL2-PE respectively) is performed.

[5] = Particle size measurement (DLS hydrodynamic size); type: physicochemical; details: DLS hydrodynamic size
HepG2 cells [6] = experiment: CCK8 toxicity of DNA nanoparticles and carrier drugs; type: cell-based; details: HepG2, CCK8, 72 hours
Method: A CCK8 method is used to detect the toxicity of DNA nanoparticles and carrier drugs to HepG2.
2. A sample to be tested is diluted according to the following table and added: the original culture medium is removed and 100 μL of a culture medium of the sample to be tested with the different concentration is added, and there are 3 replicate wells in each group.
In the present embodiment, the loaded drug and the blank carrier are firstly prepared into 100 μM of stock solution using the PBS, and then diluted with the complete culture medium (biotin-free DMEM). The original drug doxorubicin is firstly prepared into 100 NM of stock solution by using the DMSO, and then diluted with the complete culture medium (biotin-free DMEM). The DMSO is directly diluted with the complete medium (biotin-free DMEM).
3. After the sample to be tested is added, the 96-well plate is placed in an incubator under 37 DEG C. and 5% CO2 and incubated for 72 hours.
4. A kit is taken out and melted at a room temperature, 10 μL of CCK-8 solution is added to each wall, or the CCK8 solution is nixed with the culture medium at a ratio of 1:9, and then added to the well in an amount of 100 μL/well.
5. It is continuously incubated in the cell incubator for 4 hours, and a length of time depends on experimental conditions such as a cell type and a el density.
6. A microplate reader is used to measure an absorbance at 450 nm.
7. Calculation: cell viability (%)=(OD experimental group−OD blank group)[…]/(OD control group−OD blank group), IC50 is calculated by GraphPad Prism 5.0.

Molecule	Potential ZP, Experiment result [1] [mV]	TM value (° C.) [2] [°C]	doxorubicin loading rate [3]	Positive rate (HepG2 cells [4]; HepG2, 1 μM) [%]	Positive rate (HepG2 cells [4]; HepG2, 2 μM) [%]	Mean particle size (nm) [5] [nm]	IC50 (HepG2 cells [6]) [µM]	further results
COc1cccc2c1C(=O)c1c(O)c3c(c(O)c1C2=O)C[C@@](O)(C(=O)CO)C[C@@H]3O[C@H]1C[C@H](N)[C@@H](O)[C@H](C)O1 [Epirubicin (EPB)]								IC50 (HL60 cells): 0.301 µM
CN(Cc1cnc2nc(N)nc(N)c2n1)c1ccc(C(=O)N[C@@H](CCC(=O)O)C(=O)O)cc1 [MTX, methotrexate]								effect on proliferation of MOLT4 cells (MOLT4 cells; 72 hours): significant inhibitory effect on the proliferation of the MOLT4 cells
CN(Cc1cnc2nc(N)nc(N)c2n1)c1ccc(C(=O)N[C@@H](CCC(=O)O)C(=O)O)cc1 [Methotrexate (MTX)]								cell survival rate (%) (MOLT4 cells; MOLT-4, 72 h): 2.88%
CC(=O)Oc1ccccc1C(=O)O [aspirin]								IC50 (SH-SY5Y cells; 72 hours, read-out: IC50, SH-SY5Y cell proliferation): 1430 µM; inhibition at 5 µM (SH-SY5Y cells; administration concentration 5 μM, 72 hours, read-out: cell inhibition rate, SH-SY5Y cells): 17.7%; IC50 (SH-SY5Y cells; 72 h, CTG kit, read-out: IC50): 1430 µM
Nc1ccn([C@@H]2O[C@H](CO)[C@@H](O)C2(F)F)c(=O)n1 [gemcitabine]								IC50 (BXPC3 cells; BXPC3, 72 h, read-out: IC50): 0.0342 µM; inhibition at 5 µM (BXPC3 cells; administration concentration 5 μM, read-out: cell inhibition rate, BxPC3 cells): 83%; IC50 (BXPC3 cells; read-out: IC50, BxPC3 cell proliferation): 0.0341 µM
B1	−32.50	51.5	27.6	96.9	97.1	6.968	> 1	
B2	−28.73	49.2	32	97.4	98.3	6.896	> 1	daunorubicin loading rate ([3]; absorbance at 492 nm): 25.1
B3	−27.00	51.0	31.8	97.6	98.2	7.012	> 1	
